Assay results: US20190100597A1

Target: human CD20 on CD20-expressing cell lines (human) (UniProt P11836)
Experiment: cell-based or functional assay

Chain of human CD20 on CD20-expressing cell lines (human) (P11836 whole entry): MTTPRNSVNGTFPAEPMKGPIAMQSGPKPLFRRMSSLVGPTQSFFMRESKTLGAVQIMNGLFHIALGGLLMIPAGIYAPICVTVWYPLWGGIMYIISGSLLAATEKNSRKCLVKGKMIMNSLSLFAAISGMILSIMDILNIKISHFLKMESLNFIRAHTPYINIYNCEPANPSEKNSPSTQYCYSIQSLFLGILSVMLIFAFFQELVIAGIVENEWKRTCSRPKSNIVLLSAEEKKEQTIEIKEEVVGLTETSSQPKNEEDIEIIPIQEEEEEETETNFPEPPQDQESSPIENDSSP
Chain of rituximab-derived anti-human CD20 IgM+J (antibody) (heavy): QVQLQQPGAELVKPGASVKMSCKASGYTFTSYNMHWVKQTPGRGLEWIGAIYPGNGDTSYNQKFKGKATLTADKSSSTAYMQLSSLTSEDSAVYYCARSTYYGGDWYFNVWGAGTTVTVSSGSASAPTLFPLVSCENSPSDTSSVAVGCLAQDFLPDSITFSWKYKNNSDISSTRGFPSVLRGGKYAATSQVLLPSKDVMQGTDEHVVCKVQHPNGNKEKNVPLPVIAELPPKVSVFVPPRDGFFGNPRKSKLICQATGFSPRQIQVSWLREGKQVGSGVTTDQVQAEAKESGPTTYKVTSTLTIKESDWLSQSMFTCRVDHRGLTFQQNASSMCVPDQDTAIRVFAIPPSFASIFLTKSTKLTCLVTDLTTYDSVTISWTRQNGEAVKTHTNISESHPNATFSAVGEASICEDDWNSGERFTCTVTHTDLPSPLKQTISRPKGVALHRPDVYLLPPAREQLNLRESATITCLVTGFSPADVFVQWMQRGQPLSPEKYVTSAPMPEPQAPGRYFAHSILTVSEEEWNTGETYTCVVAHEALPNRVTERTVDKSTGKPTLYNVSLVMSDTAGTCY
Chain of rituximab-derived anti-human CD20 IgM+J (antibody) (light): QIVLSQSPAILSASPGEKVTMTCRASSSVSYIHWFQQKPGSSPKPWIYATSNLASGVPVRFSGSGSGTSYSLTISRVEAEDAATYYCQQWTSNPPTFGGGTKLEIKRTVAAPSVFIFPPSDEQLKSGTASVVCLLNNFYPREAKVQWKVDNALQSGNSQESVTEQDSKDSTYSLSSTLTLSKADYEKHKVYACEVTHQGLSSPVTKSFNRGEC
Chain of rituximab-derived anti-human CD20 IgM+J (antibody) (chain): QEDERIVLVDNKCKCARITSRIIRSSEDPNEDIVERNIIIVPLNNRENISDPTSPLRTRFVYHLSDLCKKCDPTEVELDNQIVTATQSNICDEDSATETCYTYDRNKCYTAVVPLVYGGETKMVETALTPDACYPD

Question: Which CDC (IC50) on Raji cells does the source give for “rituximab-derived anti-human CD20 IgM+J (antibody)” here?
Answer: Its CDC (IC50) on Raji cells is 2 µg/mL.

Question: And the CDC EC50 on DOHH-2 cells?
Answer: The CDC EC50 on DOHH-2 cells was 90 pM.

Question: What about the CDC EC50 on Z-138 cells of the same substance?
Answer: The CDC EC50 on Z-138 cells was 410 pM.
